# Data reported in patent US9327008B2, “Cell-permeant peptide-based inhibitor of kinases” (Purdue Research Foundation, priority 2008, dated 2016).
# pIC50: −log10 of the molar value. Non-standard residues stand in square brackets, D forms with d. No end group written: not given here.
# Tests used:
# MK2 [1] = target: MK2 (Homo sapiens, UniProt P49137); assay: Omnia fluorescence-based kinase activity assay for MAPKAP-K2 (reaction velocity); format: biochemical; set-up: purchased Invitrogen; conditions: for MK2 inhibition (in words): PTD peptide alone, 12.5-100 μM
# Sequence of MK2 (Homo sapiens, UniProt P49137) (P49137 whole entry): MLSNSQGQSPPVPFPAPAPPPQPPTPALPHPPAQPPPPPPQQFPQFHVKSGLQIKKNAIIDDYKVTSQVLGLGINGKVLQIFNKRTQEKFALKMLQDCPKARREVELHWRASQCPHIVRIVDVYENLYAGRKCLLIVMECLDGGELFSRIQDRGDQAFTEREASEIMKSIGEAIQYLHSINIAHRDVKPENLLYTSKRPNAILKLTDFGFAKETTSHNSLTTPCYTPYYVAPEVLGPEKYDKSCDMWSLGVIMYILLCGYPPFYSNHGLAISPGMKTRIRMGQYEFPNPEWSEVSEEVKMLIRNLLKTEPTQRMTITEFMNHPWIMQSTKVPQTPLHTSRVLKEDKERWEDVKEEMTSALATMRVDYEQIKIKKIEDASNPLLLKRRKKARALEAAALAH
# Method: The Omnia® Kinase Assay for MAPKAP-K2 kit (Invitrogen, Carlsbad, Calif.), was used to determine the reaction velocity for MK2 in the presence and absence of each of the peptides listed in Table 1. The kit contains a proprietary reaction buffer to which the following were added (final concentrations are given): 1 mM ATP, 0.2 mM DTT, 10 μM MAPKAP-K2 Sox-modified peptide substrate, 5 ng MK2, and the inhibitor peptide of interest (final volume of 50 μL). Human MK2 was purchased from Invitrogen. The reactions were performed at 30° C. in the wells of a low-protein-binding 96-well plate provided with the kit, and fluorescence readings (excitation=360 nm, emission=485 nm) were taken every 30 seconds for 20 minutes using a SpectraMax M5 Spectrophotometer (Molecular Devices). Reaction velocity was determined for each reaction well from the slope of a plot of relative fluorescence units versus time. Each inhibitor peptide was tested at least at four concentrations, 12.5, 25, 50 and […], in triplicate.
# In Table 1, “a” represents that the results shown are for 100 μM for all peptides; “b” represents the percentage change in MK2 reaction velocity versus the unsubstituted peptide ([…]) [SEQ ID NO: 13] at a concentration of 100 μM; “c” represents the error reported as the standard deviation between three samples.
# CaMKIV = CaMKIV (Homo sapiens, UniProt Q16566); conditions: AIP 1 μM; cited from earlier work
# Sequence of CaMKIV (Q16566 whole entry, species assumed): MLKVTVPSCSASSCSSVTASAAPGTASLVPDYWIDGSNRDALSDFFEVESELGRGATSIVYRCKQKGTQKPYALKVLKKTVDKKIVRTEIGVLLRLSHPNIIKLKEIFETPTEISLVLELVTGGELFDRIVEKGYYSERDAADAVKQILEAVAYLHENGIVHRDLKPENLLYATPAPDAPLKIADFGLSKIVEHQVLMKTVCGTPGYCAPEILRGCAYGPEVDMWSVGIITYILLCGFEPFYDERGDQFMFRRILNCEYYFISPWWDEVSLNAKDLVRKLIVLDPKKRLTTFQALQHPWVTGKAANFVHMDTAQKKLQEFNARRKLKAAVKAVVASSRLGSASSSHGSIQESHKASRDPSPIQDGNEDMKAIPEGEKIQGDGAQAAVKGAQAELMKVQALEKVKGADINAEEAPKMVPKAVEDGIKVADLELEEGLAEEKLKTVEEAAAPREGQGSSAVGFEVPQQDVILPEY
# PKC = conditions: AIP 1 μM; cited from earlier work
# [2] = test system: Ca2+/calmodulin-dependent protein kinase II (CaMKII); conditions: cited from earlier work
# PKA = conditions: AIP 1 μM; cited from earlier work
# [3] = test system: IL-6 expression induced by TNF-α in mesothelial cells (CRL-9444); assay: IL-6 ELISA, mesothelial cells induced with TNF-α; format: cell-based
# Method: A cell line of pleural mesothelial cells (CRL-9444) was purchased from American Type Culture Collection. Cells were maintained and seeded in Medium 199 with Earle's BSS and 0.75 mM L-glutamine (Mediatech, Inc., Manassas, Va.), 1.25 g/L sodium bicarbonate (Sigma, St. Louis, Mo.), 3.3 nM epidermal growth factor (MBL International, Woburn, Mass.), 40 nM hydrocortisone (Sigma), 870 nM insulin (MBL International), 20 mM HEPES (Sigma), trace elements mixture B (Mediatech, Inc.), 10% fetal bovine serum (FBS) (Hyclone, Waltham, Mass.) and 1% penicillin/streptomycin (Mediatech, Inc.). Prior to treating cells with therapeutic inhibitor peptides, cells were allowed to acclimate in serum-free media consisting of only Medium 199 with Earle's BSS. L-glutamine, sodium bicarbonate, HEPES, trace elements mixture B, and penicillin/streptomycin (concentrations and suppliers as above) for 24 hours prior to treatment with cytokines and/or inhibitor peptides. […]
# Standards (from 2 ng/ml to zero) and samples were prepared in diluent, immediately added to each well in triplicate, and incubated at room temperature for at least 2 hours on a plate shaker adjusted to 300 rpm. […] Hoeschst 33342 nuclear stain (Invitrogen) was used to quantify cell number on the basis of DNA quantity. […]
# Results are presented as means±standard deviation. […] Significant differences were analyzed with Tukey HSD post hoc comparisons. […]
# MK2 [4] = conditions: commercially available inhibitor; kinase not named at the place, used as inhibitor of MK2 (and PRAK); cited from earlier work
# [5] = test system: IL-1β induced IL-6 expression in mesothelial cells (CRL-9444); assay: IL-6 ELISA, mesothelial cells induced with IL-1β; format: cell-based; conditions: IL-1β 1 ng/ml; Rottlerin 1 μM
# Method: A cell line of pleural mesothelial cells (CRL-9444) was purchased from American Type Culture Collection. Cells were maintained and seeded in Medium 199 with Earle's BSS and 0.75 mM L-glutamine (Mediatech, Inc., Manassas, Va.), 1.25 g/L sodium bicarbonate (Sigma, St. Louis, Mo.), 3.3 nM epidermal growth factor (MBL International, Woburn, Mass.), 40 nM hydrocortisone (Sigma), 870 nM insulin (MBL International), 20 mM HEPES (Sigma), trace elements mixture B (Mediatech, Inc.), 10% fetal bovine serum (FBS) (Hyclone, Waltham, Mass.) and 1% penicillin/streptomycin (Mediatech, Inc.). Prior to treating cells with therapeutic inhibitor peptides, cells were allowed to acclimate in serum-free media consisting of only Medium 199 with Earle's BSS. L-glutamine, sodium bicarbonate, HEPES, trace elements mixture B, and penicillin/streptomycin (concentrations and suppliers as above) for 24 hours prior to treatment with cytokines and/or inhibitor peptides. […] For all cell culture experiments, the cell-penetrating MK2 inhibitor peptide sequence [sequence] [SEQ ID NO: 11] was used.
# IL-6 analysis was performed with a IL-6 ELISA kit (PeproTech, Inc., Rocky Hill, N.J.). Briefly, the plate was prepared as follows. The capture antibody (antigen-affinity purified goat anti-hIL-6+2.5 mg D-mannitol) was diluted with phosphate buffered saline (PBS) to a concentration of 1 μg/ml and added to the each well of the plate. The plate was sealed and incubated at room temperature overnight. The wells then were aspirated to remove liquid, and washed 4 times using wash buffer (300 μl per well of 0.05% Tween-20 in PBS). After the last wash, the plate was inverted to remove residual buffer, and blotted on a paper towel. Block buffer (300 μl per well of 1% BSA in PBS) was added, the plate incubated for at least 1 hour at room temperature, aspirated and washed 4 times.
# Standards (from 2 ng/ml to zero) and samples were prepared in diluent, immediately added to each well in triplicate, and incubated at room temperature for at least 2 hours on a plate shaker adjusted to 300 rpm. […] Following the incubation, the plate was aspirated, washed 4 times, avidin-horse radish peroxidase (HRP) conjugate added ((5.5 μl:10994.5 μl diluent) (100 μl) to each well, incubated for 30 minutes at room temperature on a plate shaker adjusted to 300 rpm, aspirated, and washed 4 times. To each well then was added ABTS Liquid Substrate Solution (Sigma) (100 μl). The plate was incubated at room temperature for color development on a plate shaker adjusted to 300 rpm. Absorbance was measured at 405 nm and 650 nm (650 nm was the wavelength correction subtracted from each 405 nm measurement) using a Spectramax M5 Microplate Reader (Molecular Devices) every 5 minutes for 50 minutes. Hoeschst 33342 nuclear stain (Invitrogen) was used to quantify cell number on the basis of DNA quantity. All results were run in triplicate and normalized to cell number.
# One-way ANOVA analyses were used to determine statistically significant increases or decreases in parameters of interest. Significant differences were analyzed with Tukey HSD post hoc comparisons. A significance level of α=0.05 was used in cytokine analyses.
# Mesothelial cells were incubated with IL-1β (1 ng/ml) (to induce IL-6 expression) and/or different concentrations of therapeutic inhibitor peptide. The commercially available protein kinase inhibitor Rottlerin was introduced as an inhibitor of both MK2 and PRAK.
# [6] = 100 μM peptide, percentage change in MK2 reaction velocity versus unsubstituted KALNRQLGVAA at 100 μM, SD of three samples
percent change in MK2 reaction velocity versus unsubstituted peptide (MK2 [1]; [6]),Compound,other results
+257(17) %,"KALNRQdLGVAA (KALNRQ[dL]GVAA-NH2) [therapeutic domain, D-amino acid substitution]",
+273(22) %,"KALNRQLGAAA [therapeutic domain, alanine substitution]",
,"KKALRRQEAVDAL [AIP, autocamtide-2 related inhibitory peptide]",CaMKIV activity (CaMKIV): not affected; PKC activity (PKC): not affected; CaMKII activity ([2]; AIP 1 μM): inhibited completely; pIC50 [2]: 7.00; PKA activity (PKA): not affected
+258(26) %,KALNRQLGVAA [unsubstituted therapeutic domain peptide],inhibition of MK2 activity (MK2 [1]; 100 μM peptide): 73%
46(7) %,"KAdLNRQLGVAA (KA[dL]NRQLGVAA-NH2) [therapeutic domain, D-amino acid substitution]",
−83(4) %,WLRRIKAWLRRIKA [protein transduction domain peptide],MK2 inhibition (in words) (MK2 [1]): potently inhibited
,WLRRIKA [cell penetrating peptide domain (non-functional)],% of KALNRQLGVAA [SEQ ID NO: 13] Reaction Velocity (+VoSD) (MK2 [1]; [6]): 306%
+52(6) %,"KAANRQLGVAA [therapeutic domain, alanine substitution]",
0(5) %,KALNRQLGVA [therapeutic domain without C-terminal Ala],
,CC(=O)c1c(O)c(C)c(O)c(Cc2c(O)c3c(c(C(=O)/C=C/c4ccccc4)c2O)OC(C)(C)C=C3)c1O [Rottlerin],"level of expression of IL-6 induced by TNF-α (FIG. 8) ([3]; TNF-α 1 ng/ml): ineffective; level of expression of IL-6 induced by TNF-α (FIG. 9) ([3]; TNF-α 10 ng/ml, initially, from 6-12 hours): minimal reduction; pIC50 (MK2 [4]): 5.30; IL-1β induced IL-6 expression (FIG. 7) [5]: significantly reduced; time at which significant reduction of IL-1β induced IL-6 expression occurs [5]: 12 h"
+176(5) %,"KALNRdQLGVAA (KALNR[dQ]LGVAA-NH2) [therapeutic domain, D-amino acid substitution]",
+18(7) %,"KALNRQAGVAA [therapeutic domain, alanine substitution]",
−9(8) %,KKKALNRQLGVAA [therapeutic domain with two additional N-terminal Lys],
−28(5) %,"KALNRQLAVAA [therapeutic domain, alanine substitution]",
−5(10) %,"KALdNRQLGVAA (KAL[dN]RQLGVAA-NH2) [therapeutic domain, D-amino acid substitution]",
+206(7) %,"KALNdRQLGVAA (KALN[dR]QLGVAA-NH2) [therapeutic domain, D-amino acid substitution]",

Compound,percent change in MK2 reaction velocity versus unsubstituted peptide (MK2 [1]; [6]),other results
"KALNRQLGdVAA (KALNRQLG[dV]AA) [therapeutic domain, D-amino acid substitution]",+160(23) %,
"YGRKKRRQRRR [protein transduction domain peptide, reference compound]",+44(17) %,inhibition of MK2 activity (MK2 [1]; 25 μM peptide): 48%; inhibition of MK2 activity (MK2 [1]; 100 μM peptide): 61%
"YARAAARQARA [synthetic protein transduction domain peptide PTD-4, reference compound]",+149(13) %,MK2 inhibition (in words) (MK2 [1]): least affected
"KALNAQLGVAA [therapeutic domain, alanine substitution]",+258(14) %,
"KALARQLGVAA [therapeutic domain, alanine substitution]",−61(2) %,
